Test results as given in US20220177587A1, “METHODS AND USES OF VARIANT CD80 FUSION PROTEINS AND RELATED CONSTRUCTS” (Alpine Immune Sciences, Inc., priority 2018, published 2022).
Like-named read-outs stand apart in the source and are kept apart here. Each block holds one substance with its values, some of them ahead of it.

Legend:
CD28 (human) [1] = biological target: CD28 (human) (UniProt P10747); experiment: flow cytometry, Jurkat/IL2 reporter cells (CD28)
PD-L1 (human) [2] = biological target: PD-L1 (human) (UniProt Q9NZQ7); experiment: flow cytometry, CHO cells expressing huPD-L1
Sequence of PD-L1 (human) (Q9NZQ7 19-290): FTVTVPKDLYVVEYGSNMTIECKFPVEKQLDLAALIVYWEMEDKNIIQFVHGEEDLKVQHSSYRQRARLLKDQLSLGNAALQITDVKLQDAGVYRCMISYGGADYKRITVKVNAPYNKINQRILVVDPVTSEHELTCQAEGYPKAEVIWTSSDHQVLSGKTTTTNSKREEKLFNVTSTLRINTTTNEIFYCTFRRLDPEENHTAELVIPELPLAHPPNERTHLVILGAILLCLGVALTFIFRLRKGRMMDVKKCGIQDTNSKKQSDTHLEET

PD-L1 (human) [3] = biological target: PD-L1 (human) (UniProt Q9NZQ7)
CD28 (human) [4] = biological target: CD28 (human) (UniProt P10747)
CD28 (human) [5] = biological target: CD28 (human) (UniProt P10747); remark: listed apart in the source
PD-L1 (human) [6] = biological target: PD-L1 (human) (UniProt Q9NZQ7); experiment: flow cytometry, CHO cells expressing PD-L1
CD28 (human) [7] = biological target: CD28 (human) (UniProt P10747); experiment: flow cytometry, Jurkat cells (CD28)
PD-L1 (human) [8] = biological target: PD-L1 (human) (UniProt Q9NZQ7); experiment: flow cytometry, MFI on PD-L1 over MFI on CD28
human CTLA-4 (human) [9] = biological target: human CTLA-4 (human) (UniProt P16410); experiment: flow cytometry, CHO cells expressing CTLA4
Sequence of human CTLA-4 (human) (P16410 36-223): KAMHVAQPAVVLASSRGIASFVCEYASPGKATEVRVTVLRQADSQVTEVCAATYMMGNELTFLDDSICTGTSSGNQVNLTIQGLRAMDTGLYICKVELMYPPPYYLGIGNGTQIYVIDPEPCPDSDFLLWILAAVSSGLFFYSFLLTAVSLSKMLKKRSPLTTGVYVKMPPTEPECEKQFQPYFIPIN

PD-L1 (human) [10] = biological target: PD-L1 (human) (UniProt Q9NZQ7); remark: listed apart in the source
CD28 (human) [11] = biological target: CD28 (human) (UniProt P10747); remark: listed apart in the source
PD-L1 (human) [12] = biological target: PD-L1 (human) (UniProt Q9NZQ7); experiment: flow cytometry, CHO/huPD-L1 cells; vs WT CD80 ECD-Fc (Abcam)
human CTLA-4 (human) [13] = biological target: human CTLA-4 (human) (UniProt P16410); experiment: flow cytometry, CHO/huCTLA-4 cells; vs WT CD80 ECD-Fc (Abcam)
human CTLA-4 (human) [14] = biological target: human CTLA-4 (human) (UniProt P16410); experiment: flow cytometry, CHO cells expressing huCTLA-4
CD28 (human) [15] = biological target: CD28 (human) (UniProt P10747); experiment: flow cytometry, Jurkat/IL2 reporter cells (CD28); remark: listed apart in the source
PD-L1 (human) [16] = biological target: PD-L1 (human) (UniProt Q9NZQ7); experiment: flow cytometry, CHO cells expressing huPD-L1; remark: listed apart in the source
human CTLA-4 (human) [17] = biological target: human CTLA-4 (human) (UniProt P16410); experiment: flow cytometry, CHO cells stably expressing CTLA4
PD-L1 (human) [18] = biological target: PD-L1 (human) (UniProt Q9NZQ7); experiment: flow cytometry, MFI on CHO/PD-L1 over MFI on Jurkat (CD28)
CD28 (human) [19] = biological target: CD28 (human) (UniProt P10747); experiment: flow cytometry, Jurkat cells (CD28); remark: listed apart in the source
PD-L1 (human) [20] = biological target: PD-L1 (human) (UniProt Q9NZQ7); experiment: flow cytometry, CHO cells stably expressing PD-L1
PD-L1 (human) [21] = biological target: PD-L1 (human) (UniProt Q9NZQ7); remark: listed apart in the source
CD28 (human) [22] = biological target: CD28 (human) (UniProt P10747); remark: listed apart in the source
PD-L1 (human) [23] = biological target: PD-L1 (human) (UniProt Q9NZQ7); experiment: flow cytometry, HEK293 cells transfected with full-length human PD-L1, PE anti-human Fc
human CTLA-4 (human) [24] = biological target: human CTLA-4 (human) (UniProt P16410); experiment: flow cytometry, CHO cells stably expressing CTLA4; remark: listed apart in the source
human CTLA-4 (human) [25] = biological target: human CTLA-4 (human) (UniProt P16410); experiment: flow cytometry, CHO cells expressing huCTLA4
CD28 (human) [26] = biological target: CD28 (human) (UniProt P10747); experiment: flow cytometry, Jurkat cells (CD28); remark: listed apart in the source
PD-L1 (human) [27] = biological target: PD-L1 (human) (UniProt Q9NZQ7); remark: listed apart in the source
CD28 (human) [28] = biological target: CD28 (human) (UniProt P10747); remark: listed apart in the source
human CTLA-4 (human) [29] = biological target: human CTLA-4 (human) (UniProt P16410); experiment: flow cytometry, CHO/CTLA4 cells; MFI over CD80 WT IgV-Fc
human CTLA-4 (human) [30] = biological target: human CTLA-4 (human) (UniProt P16410); experiment: flow cytometry, CHO cells stably expressing CTLA4; remark: listed apart in the source
PD-L1 (human) [31] = biological target: PD-L1 (human) (UniProt Q9NZQ7); experiment: flow cytometry, CHO cells stably expressing PD-L1; remark: listed apart in the source
PD-L1 (human) [32] = biological target: PD-L1 (human) (UniProt Q9NZQ7); experiment: flow cytometry, CHO/PD-L1 cells; MFI over CD80 WT IgV-Fc
CD28 (human) [33] = biological target: CD28 (human) (UniProt P10747); experiment: flow cytometry, Jurkat cells (CD28); MFI over CD80 WT IgV-Fc

Fold change to WT CD80 (PD-L1 (human) [6]): 365 fold
MFI at 33.3 nM (PD-L1 (human) [6]): 18800 MFI
Fold change to WT CD80 (CD28 (human) [7]): 7.8 fold
MFI at 33.3 nM (CD28 (human) [7]): 244 MFI
Ratio of PDL1:CD28 (PD-L1 (human) [8]): 77.1
Fold change to WT CD80 (human CTLA-4 (human) [9]): 13.3 fold
MFI at 33.3 nM (human CTLA-4 (human) [9]): 23300 MFI
Substance: CD80 H18Y/E35D/D46E/M47I/V68M/R94L IgV-Fc (Fc fusion)

MFI at 33.3 nM (CD28 (human) [1]): 1024 MFI
MFI at 33.3 nM (PD-L1 (human) [2]): 72100 MFI
Substance: variant CD80 IgV-Fc Q33L/E35D/M43I/Y53F/T62S/L85Q (Fc fusion)

Fold change to WT CD80 (human CTLA-4 (human) [17]): 18.7 fold
MFI at 33.3 nM (human CTLA-4 (human) [17]): 19500 MFI
RLU at 5.0 nM: Fold Increase over WT CD80-IgV-Fc (PD-L1 (human) [3]): 0.3 fold
RLU at 5.0 nM: Fold Increase over WT CD80-IgV-Fc (CD28 (human) [4]): 0.3 fold
Ratio of PDL1:CD28 (PD-L1 (human) [18]): 20
Fold change to WT CD80 (CD28 (human) [19]): 11.6 fold
MFI at 33.3 nM (CD28 (human) [19]): 478 MFI
Fold change to WT CD80 (PD-L1 (human) [20]): 135 fold
MFI at 33.3 nM (PD-L1 (human) [20]): 9580 MFI
RLU at 5.0 nM: Fold Increase over WT CD80-IgV-Fc (PD-L1 (human) [21]): 5.7 fold
RLU at 5.0 nM: Fold Increase over WT CD80-IgV-Fc (CD28 (human) [22]): 5.7 fold
Substance: CD80 IgV-Fc H18Y/E35D/M47L/Y53F/V68M/A71G (Fc fusion)

MFI at 33.3 nM (human CTLA-4 (human) [24]): 20600 MFI
MFI at 33.3 nM (human CTLA-4 (human) [25]): 341000 MFI
MFI at 33.3 nM (CD28 (human) [1]): 2160 MFI
MFI at 33.3 nM (PD-L1 (human) [2]): 53400 MFI
MFI at 33.3 nM (CD28 (human) [26]): 236 MFI
Substance: variant CD80 IgV-Fc A26E/E35D/M47L/A71G (Fc fusion)

IL2-luciferase reporter (RLU), fold increase over WT CD80-IgV-Fc at 5.0 nM (PD-L1 (human) [27]): 6.5 fold
IL2-luciferase reporter (RLU), fold increase over WT CD80-IgV-Fc at 5.0 nM (CD28 (human) [28]): 6.5 fold
Substance: CD80 V22A/E35D/M47L/A71G IgV-Fc (Fc fusion)

RLU at 5.0 nM: Fold Increase over WT CD80-IgV-Fc (PD-L1 (human) [3]): 0.5 fold
RLU at 5.0 nM: Fold Increase over WT CD80-IgV-Fc (CD28 (human) [4]): 0.5 fold
Substance: CD80 IgV-Fc H18Y/E35D/M38I/M47L/V68M/L85M (Fc fusion)

IL2-luciferase reporter, fold increase in RLU over WT CD80-IgV-Fc at 5.0 nM (PD-L1 (human) [10]): 2.77 fold
IL2-luciferase reporter, fold increase in RLU over WT CD80-IgV-Fc at 5.0 nM (CD28 (human) [11]): 2.77 fold
Substance: CD80 E35D/D46V/M47L/V68M/L85Q/E88D IgV-Fc, delta linker (Fc fusion)

MFI at 33.3 nM (CD28 (human) [7]): 4730 MFI
Fold change to WT CD80 (human CTLA-4 (human) [29]): 17.2 fold
MFI at 33.3 nM (human CTLA-4 (human) [30]): 23800 MFI
MFI at 33.3 nM (PD-L1 (human) [31]): 33400 MFI
Fold change to WT CD80 (PD-L1 (human) [32]): 203 fold
Fold change to WT CD80 (CD28 (human) [33]): 46.4 fold
Substance: variant CD80 IgV-Fc (inert) H18A/A26P/E35D/M47L/V68M/A71G/D90G (Fc fusion)

MFI at 33.3 nM (CD28 (human) [7]): 4910 MFI
Fold change to WT CD80 (human CTLA-4 (human) [29]): 15.4 fold
MFI at 33.3 nM (human CTLA-4 (human) [30]): 21400 MFI
MFI at 33.3 nM (PD-L1 (human) [31]): 36300 MFI
Fold change to WT CD80 (PD-L1 (human) [32]): 220 fold
Fold change to WT CD80 (CD28 (human) [33]): 48.2 fold
Substance: variant CD80 IgV-Fc (inert) H18A/A26N/E35D/M47L/V68M/A71G/D90G (Fc fusion)

Second part, the substance before the results:

Substance: variant CD80 IgV-Fc E35D/M47I/Y87Q/K89E (Fc fusion)
MFI at 33.3 nM (CD28 (human) [1]): 15500 MFI
MFI at 33.3 nM (PD-L1 (human) [2]): 29800 MFI

Substance: CD80 IgV-Fc V22D/E24D/E35D/M47L/V68M/L85M/D90G (Fc fusion)
RLU at 5.0 nM: Fold Increase over WT CD80-IgV-Fc (PD-L1 (human) [3]): 2.4 fold
RLU at 5.0 nM: Fold Increase over WT CD80-IgV-Fc (CD28 (human) [4]): 2.4 fold

Substance: variant CD80 IgV-Fc E35D/A71D (SEQ ID NO 176) (Fc fusion)
Fold increase in IL2 reporter signal (Jurkat/IL2 reporter assay) (fold vs WT CD80 IgV-Fc) (CD28 (human) [5]): 0.36

Substance: CD80 E35D/M47V/N48K/V68M/K89N IgV-Fc, delta linker (Fc fusion)
IL2-luciferase reporter, fold increase in RLU over WT CD80-IgV-Fc at 5.0 nM (PD-L1 (human) [10]): 2.63 fold
IL2-luciferase reporter, fold increase in RLU over WT CD80-IgV-Fc at 5.0 nM (CD28 (human) [11]): 2.63 fold

Substance: variant CD80 IgV-Fc E35D/M47V/N48K/K89N (Fc fusion)
Fold change to WT CD80 (PD-L1 (human) [12]): 52.1 fold
Fold change to WT CD80 (human CTLA-4 (human) [13]): 1.1 fold
MFI at 33.3 nM (human CTLA-4 (human) [14]): 43800 MFI
MFI at 33.3 nM (CD28 (human) [15]): 701 MFI
MFI at 33.3 nM (PD-L1 (human) [16]): 6670 MFI

Substance: variant CD80 IgV-Fc E35D/A71D (SEQ ID NO: 194) (Fc fusion)
MFI at 22.2 nM (PD-L1 (human) [23]): 13800 MFI

Substance: CD80 IgV-Fc V22D/E24D/E35D/M47L/V68M (Fc fusion)
RLU at 5.0 nM: Fold Increase over WT CD80-IgV-Fc (PD-L1 (human) [3]): 2.4 fold
RLU at 5.0 nM: Fold Increase over WT CD80-IgV-Fc (CD28 (human) [4]): 2.4 fold

Substance: WT CD80 ECD-Fc (control of Table E5) (Fc fusion)
Fold increase in IL2 reporter signal (Jurkat/IL2 reporter assay) (fold vs WT CD80 IgV-Fc) (CD28 (human) [5]): 0.93

Substance: CD80 IgV-Fc E35D/D46E/M47V/V68M/L85Q (Fc fusion)
RLU at 5.0 nM: Fold Increase over WT CD80-IgV-Fc (PD-L1 (human) [3]): 2.5 fold
RLU at 5.0 nM: Fold Increase over WT CD80-IgV-Fc (CD28 (human) [4]): 2.5 fold
